Measured values published in patent publication US20240207432A1 (BIOSION, published 2024).
Where a chain is given by its changes, count along the chain named.

T1: full length human TROP2 on 293F-TROP2 cells (human, UniProt P09758 27-323)
T1 construct: also called 293F-TROP2 cells (clone ID #3A8); cell surface TROP2
T1 sequence: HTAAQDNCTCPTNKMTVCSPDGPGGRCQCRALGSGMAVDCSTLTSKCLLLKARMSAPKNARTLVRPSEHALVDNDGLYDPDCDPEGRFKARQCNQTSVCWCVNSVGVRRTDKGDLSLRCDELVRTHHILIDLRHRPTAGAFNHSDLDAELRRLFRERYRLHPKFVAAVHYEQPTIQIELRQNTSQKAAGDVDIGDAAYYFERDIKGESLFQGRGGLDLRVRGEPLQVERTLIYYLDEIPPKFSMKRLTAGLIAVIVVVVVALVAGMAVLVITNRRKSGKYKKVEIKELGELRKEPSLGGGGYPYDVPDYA

T2: cynomolgus TROP2-his protein (cynomolgus monkey, UniProt P09758 27-272 (human entry), limits assumed)
T2 construct: no cleavage site is stated; also called Cynomolgus monkey TROP2-his protein; monkey TROP2
T2 chain: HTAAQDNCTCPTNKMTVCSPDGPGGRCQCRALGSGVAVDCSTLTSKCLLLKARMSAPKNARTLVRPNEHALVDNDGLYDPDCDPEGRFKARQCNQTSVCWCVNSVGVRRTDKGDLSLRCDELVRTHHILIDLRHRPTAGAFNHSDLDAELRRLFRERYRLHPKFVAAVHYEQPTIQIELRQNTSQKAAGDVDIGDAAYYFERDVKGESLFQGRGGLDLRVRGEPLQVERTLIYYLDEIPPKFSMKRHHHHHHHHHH

T3: human TROP2-his protein (human, UniProt P09758 27-274)
T3 construct: Biotin-labelled in the ELISAs, unlabelled analyte in Biacore; also called biotin-labeled human TROP2-his protein; biotin human Trop2-his
T3 sequence: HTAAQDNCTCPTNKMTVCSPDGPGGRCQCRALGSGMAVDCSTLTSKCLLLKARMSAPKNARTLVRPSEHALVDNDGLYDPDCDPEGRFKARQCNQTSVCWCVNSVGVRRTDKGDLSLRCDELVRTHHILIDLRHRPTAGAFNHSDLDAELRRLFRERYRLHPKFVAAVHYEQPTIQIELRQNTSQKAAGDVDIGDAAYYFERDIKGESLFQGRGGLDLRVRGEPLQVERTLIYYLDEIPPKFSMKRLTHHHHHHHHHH

B1: benchmark (in house prepared sacituzumab) (antibody, human IgG1, kappa, V domains shown)
VH: SVQLQQSGSELKKPGASVKVSCKASGYTFTNYGMNWVKQAPGQGLKWMGWINTYTGEPTYTDDFKGRFAFSLDTSVSTAYLQISSLKADDTAVYFCARGGFGSSYWYFDVWGQGSLVTVSS
VL: DIQLTQSPSSLSASVGDRVSITCKASQDVSIAVAWYQQKPGKAPKLLIYSASYRYTGVPDRFSGSGSGTDFTLTISSLQPEDFAVYYCQQHYITPLTFGAGTKVEIKR
notes: also called BM; BM1
B2: mouse antibody C1B3B12D2 (antibody, V domains shown)
VH: QVQLQQSGPELVRPGTSVKMSCKAAGYTFTKFWIGWVKQRPGHGLEWIGNIYPGGAYINYNENFKGKATLTADTFSSTAYMQLNSLTSADSAIYYCAREGSSGYWGQGTTLTVSS
VL: DIVMTQSPSSLTVTAGEKVTLSCKCSQSLLNSGTQENYLTWYQQKPGQPPKMLIYWASIREPGVPDRFTGSGSGTDFTLTINNVQAEDLAVYYCQHDYSYPFTFGSGTKLEIK
notes: Mouse monoclonal IgG purified from hybridoma supernatant
B3: mouse antibody A1E4F7D4 (antibody, V domains shown)
VH: QVQLQQSGAELAKPGTSVKMSCEASGYSFTTHWIHWMKQRPGQGLEWIGTIFPSNAYAVYNQKFRDRAIMTADRSSTTAYIQLTGLTSEDSAVYYCARASYFDYWGQGTTLTVSS
VL: DILLTQSPATLSVSPGERVTFSCRASQNIGTSIHWFQQRTTGSPRLLIKYASESISGIPSRFSGSGSGTDFTLHINSVESEDIAHYYCQHSHSWPFTFGSGTKLEIQ
notes: Mouse monoclonal IgG purified from hybridoma supernatant; also called Mouse A1E4F7D4
B4: mouse antibody A1E11A12D1 (antibody, V domains shown)
VH: QVQLQQSGAELARPGASVKLSCMASGYTFTTYGISWVRQRTGQGLEWIGQIYPGSDYSYCDEDFKGKATLTADKSSSTAYMQLSSLTSEDSAVYFCARASYFDYWGQGTTLTVSS
VL: DILLTQSPAILSVSPGERVSFSCRASQTIGTAIHWYQQRANGSPRLLIKYASESISGIPSRFSGSGSGTDFALSINTVESEDFAYYYCQQSNNWPFTFGGGTKLEIR
notes: as for B2
B5: mouse antibody A1H3C5H8E12 (antibody, V domains shown)
VH: QVQLQQSGAELVRPGTSVKMSCKAAGYTFTNYWIDWVKQRPGHGLEWIGNIFPGGFYTNYNEKFKGKATLTADTSSSTAYMQLSSLTSEDSAIYYCARGGVFDYWGQGTTLTVSS
VL: B4 VL with T28S, A32S, A40T, A72T, T77S, F83I, Y85D, N93S, F96Y, R107K
notes: as for B2
B6: huA1E4F7D4-V16 (antibody, human IgG1, kappa, V domains shown)
VH: QVQLVQSGAEVKKPGASVKVSCKASGYSFTTHWIHWVRQAPGQGLEWIGTIFPSNAYAVYNQKFRDRATMTADTSISTAYIELSRLRSDDTAVYYCARASYFDYWGQGTTVTVSS
VL: EIVLTQSPATLSLSPGERATLSCRASQNIGTSIHWFQQKPGGAPRLLIKYASESISGIPSRFSGSGSGTDFTLTISSLEPEDFAVYYCQHSHSWPFTFGQGTKLEIKR
notes: Positions of the X residues are given in the claims; also called humanized antibody huA1E4F7D4-V16

Target: T1, full length human TROP2 on 293F-TROP2 …
Assay: FACS on 293F-TROP2 cells, MFI
Experimental: The binding activity of the mouse anti-TROP2 antibodies to cell surface TROP2 proteins was tested by flow cytometry (FACS), using Biosion in-house prepared 293F-TROP2 cells (clone ID #3A8) stably expressing full length human TROP2s (uniprot #P09758, SEQ ID NO.: 71) on cell membrane. The 293F-TROP2 cells were prepared by transfecting 293F cells (Thermofisher Inc., Cat #11625019) with a pCMV-T-P plasmid inserted with human TROP2 coding sequence between EcoRI and XbaI sites, following the instruction of lipofectamine 3000 transfection reagent (Thermo Fisher).
The 293F-TROP2 cells were harvested from cell culture flasks, washed twice and re-suspended in phosphate buffered saline (PBS) containing 2% v/v Fetal Bovine Serum (FACS buffer). […] Following an incubation of 40 minutes at 4° C. in dark, cells were washed twice and re-suspended in FACS buffer. Fluorescence was measured using a Becton Dickinson FACS Canto II-HTS equipment, and the MFI (mean fluorescence intensity) was plotted against antibody concentration. Data was analyzed using Graphpad Prism software and EC₅₀ values were reported.

Going from B1 to B3, the EC50 falls from 0.83 nM to 0.481 nM (1.7-fold).

B4 and B5 are within 1.5-fold of each other in EC50: 0.78 nM for the first, 0.773 nM for the second.

For B2, the “EC50 (read off the curve)” value was roughly 1 nM.

Target: T2, cynomolgus TROP2-his protein
Assay: indirect ELISA, cynomolgus TROP2-his coated, OD(450-630)

B1 and B6 are within 1.5-fold of each other in EC50: 0.599 nM for the first, 0.611 nM for the second.

In the case of B3, the EC50 is reported as 0.837 nM.

Target: T2, cynomolgus TROP2-his protein
Assay: as above
Remark: another data set of the same source

First: B1
Second: B2
The EC50 of the first is 2.2-fold higher: 0.191 nM for the first, 0.0849 nM for the second. The second is the more potent here.

Work on B3 yielded an EC50 of 0.177 nM.

Target: T2, cynomolgus TROP2-his protein
Assay: indirect ELISA, cynomolgus TROP2-his coated at 2 ug/mL, OD(450-630)
Experimental: The anti-TROP2 antibodies of the disclosure were tested for their cross-reaction with cynomolgus TROP2 proteins. Briefly, 96-well micro plates were coated with 100 μl 2 μg/ml cynomolgus TROP2-his proteins (prepared in-house with SEQ ID NO: 70) in carbonate/bicarbonate buffer (pH 9.6) overnight at 4° C. ELISA plates were washed once with wash buffer (PBS+0.05% v/v Tween-20, PBST) and then blocked with 200 μl/well blocking buffer (5% w/v non-fatty milk in PBST) for 2 hours at 37° C. […] After a final wash, plates were incubated with 100 μl/well TMB (Innoreagents) at room temperature. The reaction was stopped 3-10 minutes later at room temperature with 50 μl/well 1M H₂SO₄, and the absorbance of each well was read on a microplate reader using dual wavelength mode with 450 nm for TMB and 630 nm as the reference wavelength. The OD (450-630) values were plotted against antibody concentration. Data was analyzed using Graphpad Prism software and EC₅₀ values were reported.

Going from B1 to B3, the EC50 rises from 0.134 nM to 0.576 nM (4.3-fold).

B4 and B5 are within 1.5-fold of each other in EC50: 0.757 nM for the first, 0.593 nM for the second.

Target: T3, human TROP2-his protein
Assay: SPR Biacore T200, mAb captured on anti-mouse IgG CM5 chip, TROP2-his analyte
Experimental: (§1) Un-reacted moieties on the chip (biosensor) surface were blocked with ethanolamine. […] The antigen-antibody association kinetics was followed for 2 minutes and the dissociation kinetics was followed for 10 minutes. The association and dissociation curves were fit to a 1:1 Langmuir binding model using BIAcore evaluation software.

Compared with B2, B4 is 110-fold higher in Kd: 0.00136 nM for the first, 0.154 nM for the second.

B5 was tested, and the Kd was 1.81 nM.

First: B2
Second: B3
The koff of the first is 73-fold lower: 6.45e-07 s⁻¹ for the first, roughly 4.7e-05 s⁻¹ for the second.

First: B4
Second: B5
The koff of the first is 12-fold lower: 8.09e-05 s⁻¹ for the first, 0.000961 s⁻¹ for the second.

B2 and B3 are within 1.5-fold of each other in kon: 476000 M⁻¹ s⁻¹ for the first, 373000 M⁻¹ s⁻¹ for the second.

B4 and B5 are within 1.5-fold of each other in kon: 525000 M⁻¹ s⁻¹ for the first, 531000 M⁻¹ s⁻¹ for the second.

Target: T2, cynomolgus TROP2-his protein
Assay: as above
Experimental: as §1

Going from B2 to B4, the Kd rises from 0.00186 nM to 0.0563 nM (30-fold). The first binds more tightly here.

Binder B5 has a Kd of 1.12 nM.

First: B2
Second: B3
The koff of the first is 48-fold lower: 9.44e-07 s⁻¹ for the first, roughly 4.54e-05 s⁻¹ for the second.

Going from B4 to B5, the koff rises from 3.82e-05 s⁻¹ to 0.000758 s⁻¹ (20-fold).

B2 and B3 are within 1.5-fold of each other in kon: 508000 M⁻¹ s⁻¹ for the first, 483000 M⁻¹ s⁻¹ for the second.

B4 and B5 are within 1.5-fold of each other in kon: 678000 M⁻¹ s⁻¹ for the first, 674000 M⁻¹ s⁻¹ for the second.
